Reference: patent publication US20230357395A1 (MARENGO THERAPEUTICS, published 2023)

T1: Human NKp30, construct BKM0179 (human, UniProt O14931 19-135, limits assumed)
T1 construct: Immobilized on a CM5 chip via anti-mouse Fc antibody, so it likely carries a mouse Fc; also called Human Nkp30 (BKM0179)
T1 sequence (looked up): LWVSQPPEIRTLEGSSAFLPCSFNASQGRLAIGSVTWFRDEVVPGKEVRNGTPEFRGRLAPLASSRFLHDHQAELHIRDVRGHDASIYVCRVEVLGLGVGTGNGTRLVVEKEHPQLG


Columns and labels:
[1] = target: T2, human TRBC2 (hTRBC2), construct BIM0445 (human, UniProt A0A5B9 1-129, limits assumed); assay: SPR (BIAcore T200), antibody captured via anti-human Fc
T2 construct: also called BIM0445 (hTRBC2)
T2 sequence (A0A5B9 1-129 limits assumed): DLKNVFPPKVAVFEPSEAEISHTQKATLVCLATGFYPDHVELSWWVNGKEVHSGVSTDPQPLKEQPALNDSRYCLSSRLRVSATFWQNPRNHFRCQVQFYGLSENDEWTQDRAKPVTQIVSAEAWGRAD

[2] = target: T3, human TRBC1 (hTRBC1), construct BIM0443 (human, UniProt P01850 1-129, limits assumed); assay: SPR (BIAcore T200), antibody captured via anti-human Fc on CM5, hTRBC1 BIM0443 injected 15.6-500 nM, 1:1 fit
T3 construct: also called Human TRBC1 (BIM0443); BIM0443 (hTRBC1)
T3 sequence (P01850 1-129 limits assumed): as the sequence (A0A5B9 1-129 limits assumed) above, with K3N, N4K, K9E, Y36F counted along it
Procedure: (§1) In this example, a series of exemplary anti-TRBC1 antibody molecules were analyzed for their binding affinity for TRBC1. Briefly, surface plasmon resonance (SPR) measurements were performed by using the BIAcore T200. Each of the exemplary anti-TRBC1 antibody constructs was immobilized on a CM5 chip via anti-human Fc antibody to a response of 50 RU. […] The data was fit using a 1:1 binding model.

[3] = target: T1, Human NKp30, construct BKM0179; assay: SPR (BIAcore T200), human NKp30 BKM0179 captured via anti-mouse Fc on CM5, antibody injected 3.9-125 nM, 1:1 fit
Procedure: as §1, with “anti-NKp30” for “anti-TRBC1”, “NKp30.” for “TRBC1.”, “Human NKp30 (BKM0179)” for “Each of the exemplary anti-TRBC1 antibody constructs”, “anti-mouse” for “anti-human”

Row | Binder | binding result [1] | Kd [2] [nM] | Kd [3] [nM]
1 | BJM0578 (bivalent) (antibody, V domains shown, Bivalent construct with a human Fc) VH: QVQLVQSGAEVKKPGSSVKVSCKASGYTFTGYVMHWVRQAPGQGLEWMGFIIPIFGTANYAQKFQGRVTITSDKSTTTAYMELSSLRSEDTAVYYCARGAGYNFDGAYRFFDFWGQGTLVTVSS VL: DVVMTQSPLSLPVTLGQPASISCRSSQRLVHSNGNTYLHWYQQRPGQSPRLLIYRVSNRFPGVPDRFSGSGSGTDFTLKISRVEAEDVGVYFCSQSTHVPYTFGGGTKVEIK | no binding | 75 | 
2 | BKM0193 (single arm) (antibody, V domains shown, Single arm anti-TRBC1 construct with human Fc; also called G29A T31A) VH: QVQLVQSGAEVKKPGSSVKVSCKASGYTFTGYVMHWVRQAPGQGLEWMGFIIPIFGTANYAQKFQGRVTITSDKSTTTAYMELSSLRSEDTAVYYCARGAGYNFDGAYRFFDFWGQGTLVTVSS VL: DVVMTQSPLSLPVTLGQPASISCRSSQRLVHSNANAYLHWYQQRPGQSPRLLIYRVSNRFPGVPDRFSGSGSGTDFTLKISRVEAEDVGVYFCSQSTHVPYTFGGGTKVEIK | no binding | 360 | 
3 | BKM0194 (single arm) (antibody, V domains shown, Single arm anti-TRBC1 construct with human Fc; also called N28G) VH: QVQLVQSGAEVKKPGSSVKVSCKASGYTFTGYVMHWVRQAPGQGLEWMGFIIPIFGTANYAQKFQGRVTITSDKSTTTAYMELSSLRSEDTAVYYCARGAGYNFDGAYRFFDFWGQGTLVTVSS VL: DVVMTQSPLSLPVTLGQPASISCRSSQRLVHSGGNTYLHWYQQRPGQSPRLLIYRVSNRFPGVPDRFSGSGSGTDFTLKISRVEAEDVGVYFCSQSTHVPYTFGGGTKVEIK | no binding | 180 | 
4 | BKM0192 (single arm) (antibody, V domains shown, Single arm anti-TRBC1 construct with human Fc; also called T31A) VH: QVQLVQSGAEVKKPGSSVKVSCKASGYTFTGYVMHWVRQAPGQGLEWMGFIIPIFGTANYAQKFQGRVTITSDKSTTTAYMELSSLRSEDTAVYYCARGAGYNFDGAYRFFDFWGQGTLVTVSS VL: DVVMTQSPLSLPVTLGQPASISCRSSQRLVHSNGNAYLHWYQQRPGQSPRLLIYRVSNRFPGVPDRFSGSGSGTDFTLKISRVEAEDVGVYFCSQSTHVPYTFGGGTKVEIK | no binding | 138 | 
5 | BKM0196 (single arm) (antibody, V domains shown, Single arm anti-TRBC1 construct with human Fc; also called N28G N30S) VH: QVQLVQSGAEVKKPGSSVKVSCKASGYTFTGYVMHWVRQAPGQGLEWMGFIIPIFGTANYAQKFQGRVTITSDKSTTTAYMELSSLRSEDTAVYYCARGAGYNFDGAYRFFDFWGQGTLVTVSS VL: DVVMTQSPLSLPVTLGQPASISCRSSQRLVHSGGSTYLHWYQQRPGQSPRLLIYRVSNRFPGVPDRFSGSGSGTDFTLKISRVEAEDVGVYFCSQSTHVPYTFGGGTKVEIK | no binding | 690 | 
6 | BKM0191 (single arm) (antibody, V domains shown, Single arm anti-TRBC1 construct with human Fc; also called G29A) VH: QVQLVQSGAEVKKPGSSVKVSCKASGYTFTGYVMHWVRQAPGQGLEWMGFIIPIFGTANYAQKFQGRVTITSDKSTTTAYMELSSLRSEDTAVYYCARGAGYNFDGAYRFFDFWGQGTLVTVSS VL: DVVMTQSPLSLPVTLGQPASISCRSSQRLVHSNANTYLHWYQQRPGQSPRLLIYRVSNRFPGVPDRFSGSGSGTDFTLKISRVEAEDVGVYFCSQSTHVPYTFGGGTKVEIK | no binding | 75 | 
7 | BIM0460 (bivalent) (antibody, V domains shown, Bivalent construct with a human Fc (captured via anti-human Fc antibody)) VH: QVQLVQSGAEVKKPGSSVKVSCKASGYTFTGYVMHWVRQAPGQGLEWMGFINPYNDDIQSNERFRGRVTITSDKSTTTAYMELSSLRSEDTAVYYCARGAGYNFDGAYRFFDFWGQGTLVTVSS VL: DVVMTQSPLSLPVTLGQPASISCRSSQRLVHSNGNTYLHWYQQRPGQSPRLLIYRVSNRFPGVPDRFSGSGSGTDFTLKISRVEAEDVGVYFCSQSTHVPYTFGGGTKVEIK | no binding | 10 | 
8 | BKM0195 (single arm) (antibody, V domains shown, Single arm anti-TRBC1 construct with human Fc; also called N30S) VH: QVQLVQSGAEVKKPGSSVKVSCKASGYTFTGYVMHWVRQAPGQGLEWMGFIIPIFGTANYAQKFQGRVTITSDKSTTTAYMELSSLRSEDTAVYYCARGAGYNFDGAYRFFDFWGQGTLVTVSS VL: DVVMTQSPLSLPVTLGQPASISCRSSQRLVHSNGSTYLHWYQQRPGQSPRLLIYRVSNRFPGVPDRFSGSGSGTDFTLKISRVEAEDVGVYFCSQSTHVPYTFGGGTKVEIK | no binding | 317 | 
9 | BJM1078 (BJM0407 Parental) (antibody, V domains shown) VH: EIQLLESGGGLVQPGGSLRLSCAVSGFSITTTGYHWNWVRQAPGKGLEWVGYIYSSGSTSYNPSLKSRFTISRDTSKNTFYLQMNSLRAEDTAVYYCARGDWHYFDYWGQGTMVTVSS VL: SSETTQPPSVSVSPGQTASITCSGEKLSDKYVHWYQQKPGQSPVMVIYENDRRPSGIPERFSGSNSGNTATLTISGTQAMDEADYFCQFWDSTNSAVFGGGTQLTVL |  |  | 1.48
10 | BJM1079 (BJM0411 Parental) (antibody, V domains shown) VH: EIQLLESGGGLVQPGGSLRLSCAVSGFSITTTGYHWNWVRQAPGKGLEWVGYIYSSGSTSYNPSLKSRFTISRDTSKNTFYLQMNSLRAEDTAVYYCARGDWHYFDYWGQGTMVTVSS VL: DSVTTQSPLSLPVTLGQPASISCSGEKLSDKYVHWYQQRPGQSPRMLIYENDRRPSGVPDRFSGSNSGNDATLKISRVEAEDVGVYFCQFWDSTNSAVFGGGTKVEIK |  |  | 1.26
11 | BKM0138 (scFv, also called BJM0411 VL-N95A) scFv: EIQLLESGGGLVQPGGSLRLSCAVSGFSITTTGYHWNWVRQAPGKGLEWVGYIYSSGSTSYNPSLKSRFTISRDTSKNTFYLQMNSLRAEDTAVYYCARGDWHYFDYWGQGTMVTVSSGGGGSGGGGSGGGGSGGGGSDSVTTQSPLSLPVTLGQPASISCSGEKLSDKYVHWYQQRPGQSPRMLIYENDRRPSGVPDRFSGSNSGNDATLKISRVEAEDVGVYFCQFWDSTASAVFGGGTKVEIK |  |  | 3.2
12 | BKM0142 (scFv, also called BJM0411 VH-N60A) scFv: EIQLLESGGGLVQPGGSLRLSCAVSGFSITTTGYHWNWVRQAPGKGLEWVGYIYSSGSTSYAPSLKSRFTISRDTSKNTFYLQMNSLRAEDTAVYYCARGDWHYFDYWGQGTMVTVSSGGGGSGGGGSGGGGSGGGGSDSVTTQSPLSLPVTLGQPASISCSGEKLSDKYVHWYQQRPGQSPRMLIYENDRRPSGVPDRFSGSNSGNDATLKISRVEAEDVGVYFCQFWDSTNSAVFGGGTKVEIK |  |  | 1.28
13 | BKM0144 (scFv, also called BJM0411 VH-N60A-VL-D92A-N95A) scFv: EIQLLESGGGLVQPGGSLRLSCAVSGFSITTTGYHWNWVRQAPGKGLEWVGYIYSSGSTSYAPSLKSRFTISRDTSKNTFYLQMNSLRAEDTAVYYCARGDWHYFDYWGQGTMVTVSSGGGGSGGGGSGGGGSGGGGSDSVTTQSPLSLPVTLGQPASISCSGEKLSDKYVHWYQQRPGQSPRMLIYENDRRPSGVPDRFSGSNSGNDATLKISRVEAEDVGVYFCQFWASTASAVFGGGTKVEIK |  |  | 6.4
14 | BKM0139 (scFv, also called BJM0411 VL-D92A) scFv: EIQLLESGGGLVQPGGSLRLSCAVSGFSITTTGYHWNWVRQAPGKGLEWVGYIYSSGSTSYNPSLKSRFTISRDTSKNTFYLQMNSLRAEDTAVYYCARGDWHYFDYWGQGTMVTVSSGGGGSGGGGSGGGGSGGGGSDSVTTQSPLSLPVTLGQPASISCSGEKLSDKYVHWYQQRPGQSPRMLIYENDRRPSGVPDRFSGSNSGNDATLKISRVEAEDVGVYFCQFWASTNSAVFGGGTKVEIK |  |  | 3.2
15 | BKM0140 (scFv, also called BJM0407 VL-D92A) scFv: EIQLLESGGGLVQPGGSLRLSCAVSGFSITTTGYHWNWVRQAPGKGLEWVGYIYSSGSTSYNPSLKSRFTISRDTSKNTFYLQMNSLRAEDTAVYYCARGDWHYFDYWGQGTMVTVSSGGGGSGGGGSGGGGSGGGGSSSETTQPPSVSVSPGQTASITCSGEKLSDKYVHWYQQKPGQSPVMVIYENDRRPSGIPERFSGSNSGNTATLTISGTQAMDEADYFCQFWASTNSAVFGGGTQLTVL |  |  | 3.3
16 | BKM0143 (scFv, also called BJM0407 VH-N60A) scFv: EIQLLESGGGLVQPGGSLRLSCAVSGFSITTTGYHWNWVRQAPGKGLEWVGYIYSSGSTSYAPSLKSRFTISRDTSKNTFYLQMNSLRAEDTAVYYCARGDWHYFDYWGQGTMVTVSSGGGGSGGGGSGGGGSGGGGSSSETTQPPSVSVSPGQTASITCSGEKLSDKYVHWYQQKPGQSPVMVIYENDRRPSGIPERFSGSNSGNTATLTISGTQAMDEADYFCQFWDSTNSAVFGGGTQLTVL |  |  | 1.45
17 | BKM0141 (scFv, also called BJM0407 VL-N95A) scFv: EIQLLESGGGLVQPGGSLRLSCAVSGFSITTTGYHWNWVRQAPGKGLEWVGYIYSSGSTSYNPSLKSRFTISRDTSKNTFYLQMNSLRAEDTAVYYCARGDWHYFDYWGQGTMVTVSSGGGGSGGGGSGGGGSGGGGSSSETTQPPSVSVSPGQTASITCSGEKLSDKYVHWYQQKPGQSPVMVIYENDRRPSGIPERFSGSNSGNTATLTISGTQAMDEADYFCQFWDSTASAVFGGGTQLTVL |  |  | 3
18 | BKM0145 (scFv, also called BJM0407 VH-N60A-VL-D92A-N95A) scFv: EIQLLESGGGLVQPGGSLRLSCAVSGFSITTTGYHWNWVRQAPGKGLEWVGYIYSSGSTSYAPSLKSRFTISRDTSKNTFYLQMNSLRAEDTAVYYCARGDWHYFDYWGQGTMVTVSSGGGGSGGGGSGGGGSGGGGSSSETTQPPSVSVSPGQTASITCSGEKLSDKYVHWYQQKPGQSPVMVIYENDRRPSGIPERFSGSNSGNTATLTISGTQAMDEADYFCQFWASTASAVFGGGTQLTVL |  |  | 4.2
